According to US20230242662A1:

Key:
[1] = molecular target: recombinant human CD46 antigen (human) (UniProt P15529); assay: pH range ELISA (pH 5.5 to 7.4), coated human CD46
[2] = molecular target: human CD46 expressed on 293 cells (human) (UniProt P15529); assay: FACS, 293 cells expressing human CD46, pH 6.0
[3] = molecular target: CD46 on Colo205 cells (human) (UniProt P15529); assay: FACS, Colo205 cells that express CD46, pH 7.4
[4] = molecular target: human CD46 expressed on 293 cells (human) (UniProt P15529); assay: FACS, 293 cells expressing human CD46, pH 7.4
[5] = molecular target: human CD46 expressed on 293 cells (human) (UniProt P15529); assay: cell-based or functional assay
[6] = molecular target: CD46 on Colo205 cells (human) (UniProt P15529); assay: cell-based or functional assay
[7] = molecular target: recombinant human CD46 antigen (human) (UniProt P15529); assay: ELISA, coated human CD46; EC50 at pH 7.4 over EC50 at pH 6.0
[8] = molecular target: CD46 on Colo205 cells (human) (UniProt P15529); assay: FACS, Colo205 cells that express CD46; EC50 at pH 7.4 over EC50 at pH 6.0
[9] = molecular target: human CD46 expressed on 293 cells (human) (UniProt P15529); assay: FACS, 293 cells expressing human CD46; EC50 at pH 7.4 over EC50 at pH 6.0
[10] = molecular target: CD46 on Colo205 cells (human) (UniProt P15529); assay: FACS, Colo205 cells that express CD46, pH 6.0

pH inflection point [1] [pH] | EC50 [2] [mg/L] | EC50 [3] [mg/L] | EC50 [4] [mg/L] | ratio (ph 7.4/pH 6.0) [7] | Ratio (pH 7.4/6.0) [8] | Ratio (pH 7.4/6.0) [9] | EC50 [10] [mg/L] | Binder | IC50 of in vitro cell killing of 293 cells expressing human CD46, pH 6.0 (test article ADC, CellTiter-Glo) [5] [ng/mL] | IC50 of in vitro cell killing of 293 cells expressing human CD46, pH 7.4 (test article ADC, CellTiter-Glo) [5] [ng/mL] | Ratio (pH 7.4/6.0) of the killing IC50 on 293 cells expressing human CD46 [5] | IC50 of inhibition (cytotoxicity) of Colo205 cells that express CD46, pH 6.0 (test article ADC, CellTiter-Glo) [6] [ng/mL] | IC50 of inhibition (cytotoxicity) of Colo205 cells that express CD46, pH 7.4 (test article ADC, CellTiter-Glo) [6] [ng/mL] | Ratio (pH 7.4/6.0) of the cytotoxicity IC50 on Colo205 cells [6]
6.7 | 0.241 | 0.96 | 0.647 | 3.63 | 3.9 | 2.7 | 0.246 | BA-133-04-04 (antibody, V domains shown) VH: EVQLVESGGGLVQPGGSLRLSCAASGGSVSSYDISWIRQSPSRGLEWLGVIWTDGGTNYNSAFMSRFTISRDDSKNTAYLQMNSLKTEDTAVYYCERVYDGYPWFAYWGQGTLVTVSS VL: AIQLTQSPSSLSASVGDRVTITCRASQGISNYLNWYLQKPGQSPQLLIYYTSSLHEGVPDRFSGSGSGTDFTLKISRVEAEDVGVYYCQQYIKLPWTFGQGTKVEIK | 13.7 | 39.9 | 2.91 | 6.58 | 56 | 8.51
6.8 | 0.336 | 1.48 | 0.748 | 3.23 | 4.4 | 2.2 | 0.341 | BAP133-2-03-03-SL (antibody, V domains shown) VH: EVQLVESGGGLVQPGGSLRLSCAASGGSVSSYDISWIRQSPSRGLEWLGVIWTDGGTNYNSAFMSRFTISRDDSKNTAYLQMNSLKTEDTAVYYCERVYDGYPWFAYWGQGTLVTVSS VL: AIQLTQSPSSLSASVGDRVTITCRASQGISNYLNWYLQKPGQSPQLLIYYTSSLHSGVPDRFSGSGSGTDFTLKISRVEAEDVGVYYCQQYIKLPWTFGQGTKVEIK | 20.6 | 90.4 | 4.38 | 33.3 | 253 | 7.6
6.61 | 0.324 | 1.66 | 1.34 | 3.46 | 4.6 | 4.1 | 0.36 | BA-133-04-01 (antibody, V domains shown) VH: EVQLVESGGGLVQPGGSLRLSCAASGGSVSSYDISWIRQSPSRGLEWLGVIWTDGGTNYNSAFMSRFTISRDDSKNTAYLQMNSLKTEDTAVYYCERVYDGYPWFAYWGQGTLVTVSS VL: AIQLTQSPSSLSASVGDRVTITCRASQWISNYLNWYLQKPGQSPQLLIYYTSSLHSGVPDRFSGSGSGTDFTLKISRVEAEDVGVYYCQQYIKLPWTFGQGTKVEIK |  |  |  |  |  | 
 | 0.147 | 1.47 | 0.427 | 2.23 | 9.7 | 2.9 | 0.151 | BA-133-04-03 (antibody, V domains shown) VH: EVQLVESGGGLVQPGGSLRLSCAASGGSVSSYDISWIRQSPSRGLEWLGVIWTDGGTNYNSAFMSRFTISRDDSKNTAYLQMNSLKTEDTAVYYCERVYDGYPWFAYWGQGTLVTVSS VL: AIQLTQSPSSLSASVGDRVTITCRASQGISNYLNWYLQKPGQSPQLLIYYTSSLFSGVPDRFSGSGSGTDFTLKISRVEAEDVGVYYCQQYIKLPWTFGQGTKVEIK |  |  |  |  |  | 
6.58 | 0.676 | 3.63 | 2.23 | 7.02 | 5.2 | 3.3 | 0.704 | BAP133-2-02-12 (antibody, V domains shown) VH: EVQLVESGGGLVQPGGSLRLSCAASGGSVSSYDISWIRQSPSRGLEWLGVIWTDGGTNYNSAFMSRFTISRDDSKNTAYLQMNSLKTEDTAVYYCERVYDGYPWFAYWGQGTLVTVSS VL: AIQLTQSPSSLSASVGDRVTITCRALQGISNYLNWYQQKPGKAPKLLIYYTSSLHSGVPSRFSGSGSGTEFTLTISSLQPDDFATYYCQQYIKLPWTFGQGTKVEIK |  |  |  |  |  | 
6.64 | 0.32 | 1.57 | 1.09 | 3.8 | 4.2 | 3.4 | 0.371 | BA-133-04-02 (antibody, V domains shown) VH: EVQLVESGGGLVQPGGSLRLSCAASGGSVSSYDISWIRQSPSRGLEWLGVIWTDGGTNYNSAFMSRFTISRDDSKNTAYLQMNSLKTEDTAVYYCERVYDGYPWFAYWGQGTLVTVSS VL: AIQLTQSPSSLSASVGDRVTITCRASQGIANYLNWYLQKPGQSPQLLIYYTSSLHSGVPDRFSGSGSGTDFTLKISRVEAEDVGVYYCQQYIKLPWTFGQGTKVEIK |  |  |  |  |  | 
 | 0.147 | 0.513 | 0.368 | 1.31 | 2.6 | 2.5 | 0.201 | Benchmark (BM) BA-133-00-01 (antibody, V domains shown) VH: QVQLQESGPGLVKPSETLSLTCTVSGGSVSSYDISWIRQPPGKGLEWIGVIWTDGGTNYNSAFMSRVTISVDTSKNQFSLKLSSVTAADTAVYYCARVYDGYPWFAYWGQGTLVTVSS VL: DIQMTQSPSSLSASVGDRVTITCRASQGISNYLNWYQQKPGKAPKLLIYYTSSLHSGVPSRFSGSGSGTDFTLTISSLQPEDFATYYCQQYIKLPWTFGGGTKLEIKR | 15.8 | 23.6 | 1.5 | 4.91 | 11.6 | 2.37
